From US5910478A, “Peptidomimetics inhibiting the oncogenic action of p21 ras” (Innapharma, Inc., dated 1999)

T1: recombinant transforming ras p21 (human)
T1 chain: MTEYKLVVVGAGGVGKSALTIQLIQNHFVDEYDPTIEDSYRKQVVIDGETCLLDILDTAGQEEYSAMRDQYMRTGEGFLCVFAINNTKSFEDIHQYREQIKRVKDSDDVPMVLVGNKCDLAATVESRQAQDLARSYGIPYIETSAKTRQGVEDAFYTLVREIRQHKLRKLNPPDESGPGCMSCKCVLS


Biological target: T1, recombinant transforming ras p21
Assay: cell-based or functional assay
Details: not given

| Present Inhibition of ras-Induced Maturation | Molecule |
| --- | --- |
| 92 percent | GNKCDLAARTVE [peptide of SEQ ID NO:8 (residues 115 to 126 of SEQ ID NO:5)] |
| 28 percent | TIEDSYRKQVVID [peptide of SEQ ID NO:6 (residues 35 through 47 of SEQ ID NO:5)] |
| 65 percent | CDLAART [peptide of SEQ ID NO:9 (residues 118 to 124 of SEQ ID NO:5)] |
| 22 percent | DLAA [peptide of SEQ ID NO:4 (residues 119 to 122 of SEQ ID NO:5)] |
| 56 percent | YREQIKRVKDSDDVP [peptide of SEQ ID NO:7 (residues 96 to 110 of SEQ ID NO:5)] |

Further lines, the molecule ahead of its results:

| Molecule | Present Inhibition of ras-Induced Maturation |
| --- | --- |
| VVI [Val-Val-Ile] | 34 percent |
| KRV [Lys-Arg-Val] | 22 percent |
| KCDLA [peptide of SEQ ID NO:2 (residues 117 to 121 of SEQ ID NO:5)] | 38 percent |
| IKRVKD [peptide of SEQ ID NO:1 (residues 100 to 105 of SEQ ID NO:5)] | 76 percent |

tested on: oncogenic ras-p-21; assay: not given; details: background; cited from earlier work

| Molecule | inhibition of oncogenic ras-p-21 |
| --- | --- |
| N[C@@H](Cc1ccc(O)cn1)C(=O)O [Azatyrosine] | strongly inhibits |
